Assay results from paper PMC8544800 (Biochemistry, 2020).

B1: PCGF1 RAWUL (150–259)/BCOR PUFD dimer (complex, human)
chain 1: LPFSSFDHSKAHYYRYDEQLNLCLERLSSGKDKNKSVLQNKYVRCSVRAEVRHLRRVLCHRLMLNPQHVQLLFDNEVLPDHMTMKQIWLSRWFGKPSPLLLQYSVKEKRR
chain 2: SDVFEFEFSETPLLPCYNIQVSVAQGPRNWLLLSDVLKKLKMSSRIFRCNFPNVEIVTIAEAEFYRQVSASLLFSCSKDLEAFNPESKELLDLVEFTNEIQTLLGSSVEWLHPSD
B2: PCGF1 RAWUL (150–259)/BCOR 1448–1748 dimer (complex, human)
chain 1: LPFSSFDHSKAHYYRYDEQLNLCLERLSSGKDKNKSVLQNKYVRCSVRAEVRHLRRVLCHRLMLNPQHVQLLFDNEVLPDHMTMKQIWLSRWFGKPSPLLLQYSVKEKRR
chain 2: PMPPEARRLIVNKNAGETLLQRAARLGYEEVVLYCLENKICDVNHRDNAGYCALHEACARGWLNIVRHLLEYGADVNCSAQDGTRPLHDAVENDHLEIVRLLLSYGADPTLATYSGRTIMKMTHSELMEKFLTDYLNDLQGRNDDDASGTWDFYGSSVCEPDDESGYDVLANPPGPEDQDDDDDAYSDVFEFEFSETPLLPCYNIQVSVAQGPRNWLLLSDVLKKLKMSSRIFRCNFPNVEIVTIAEAEFYRQVSASLLFSCSKDLEAFNPESKELLDLVEFTNEIQTLLGSSVEWLHPSD
B3: PCGF1 RAWUL (150–259)/BCORL1 PUFD dimer (complex, human)
chain 1: LPFSSFDHSKAHYYRYDEQLNLCLERLSSGKDKNKSVLQNKYVRCSVRAEVRHLRRVLCHRLMLNPQHVQLLFDNEVLPDHMTMKQIWLSRWFGKPSPLLLQYSVKEKRR
chain 2: DDFMFELSDKPLLPCYNLQVSVSRGPCNWFLFSDVLKRLKLSSRIFQARFPHFEITTMPKAEFYRQVASSQLLTPAERPGGLDDRSPPGSSETVELVRYEPDLLRLLGSEVEFQSCNS
B4: PCGF1 RAWUL (150–259)/BCOR 1593–1748 dimer (complex, human)
chain 1: LPFSSFDHSKAHYYRYDEQLNLCLERLSSGKDKNKSVLQNKYVRCSVRAEVRHLRRVLCHRLMLNPQHVQLLFDNEVLPDHMTMKQIWLSRWFGKPSPLLLQYSVKEKRR
chain 2: DASGTWDFYGSSVCEPDDESGYDVLANPPGPEDQDDDDDAYSDVFEFEFSETPLLPCYNIQVSVAQGPRNWLLLSDVLKKLKMSSRIFRCNFPNVEIVTIAEAEFYRQVSASLLFSCSKDLEAFNPESKELLDLVEFTNEIQTLLGSSVEWLHPSD
B5: PCGF1 RAWUL (150–259)/BCOR PUFD Leu1705Gln dimer (complex, human)
chain 1: LPFSSFDHSKAHYYRYDEQLNLCLERLSSGKDKNKSVLQNKYVRCSVRAEVRHLRRVLCHRLMLNPQHVQLLFDNEVLPDHMTMKQIWLSRWFGKPSPLLLQYSVKEKRR
chain 2: SDVFEFEFSETPLLPCYNIQVSVAQGPRNWLLLSDVLKKLKMSSRIFRCNFPNVEIVTIAEAEFYRQVSASQLFSCSKDLEAFNPESKELLDLVEFTNEIQTLLGSSVEWLHPSD

molecular target: hexahistidine (6His)-tagged KDM2B/SKP1 dimer (human, UniProt Q8NHM5 1059-1336; P63208 1-163); assay: BLI
Sequence (Q8NHM5 1059-1336, chain 1 of 2): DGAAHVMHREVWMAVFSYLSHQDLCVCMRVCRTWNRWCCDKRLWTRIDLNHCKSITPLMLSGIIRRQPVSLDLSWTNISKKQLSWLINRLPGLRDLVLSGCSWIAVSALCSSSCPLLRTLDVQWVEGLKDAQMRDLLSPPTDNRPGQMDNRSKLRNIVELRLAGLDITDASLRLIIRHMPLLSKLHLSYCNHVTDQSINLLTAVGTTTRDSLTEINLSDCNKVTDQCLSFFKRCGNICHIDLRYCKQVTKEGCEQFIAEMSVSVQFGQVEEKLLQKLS
Sequence (P63208 whole entry, chain 2 of 2): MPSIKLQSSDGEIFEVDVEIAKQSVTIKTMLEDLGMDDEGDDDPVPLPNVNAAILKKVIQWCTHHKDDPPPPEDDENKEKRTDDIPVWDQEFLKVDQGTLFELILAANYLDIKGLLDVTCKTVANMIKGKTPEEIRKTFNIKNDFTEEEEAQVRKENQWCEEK

Point of comparison: B4, Kd 106 nM. Against it:
- B1 — 410-fold higher, 43000 nM
- B2 — 3.4-fold lower, ~31 nM
- B3 — 2.3-fold higher, ~240 nM
- B5 — 3.3-fold lower, 32 nM
